Common to all, as to conditions: both partners purified
Assay [1] has as its target T1, full-length human SOX2 (recombinant, N-terminal His-tag, 327 amino acids) (human, UniProt P48431 1-317).
T1 construct: human SOX2, full length, 317 amino acids; with the tag peptide 327 amino acids; Immobilised on an AR2G chip in BLI
As to the kind of experiment: BLI; 0.2 mg/ml SOX2 immobilised on an AR2G chip, quenched with 1 M ethanolamine; p300 (0-400 nM), KIX (0-43 uM), fragments (3 uM KIX and BR, 0.8 uM KB) in PBS; global fit, 1:1 binding model; BLItz. A general note: Biolayer interferometry detects binding as a change in optical thickness at a sensor tip.

In assay [2] the target is T2, full-length human SOX2 (human, UniProt P48431 1-317).
T2 construct: human SOX2, UniProt P48431, 317 amino acids; with the N-terminal His-tag peptide the recombinant protein has 327 amino acids; cloned into the pVFT1S plasmid
T2 sequence (P48431 whole entry): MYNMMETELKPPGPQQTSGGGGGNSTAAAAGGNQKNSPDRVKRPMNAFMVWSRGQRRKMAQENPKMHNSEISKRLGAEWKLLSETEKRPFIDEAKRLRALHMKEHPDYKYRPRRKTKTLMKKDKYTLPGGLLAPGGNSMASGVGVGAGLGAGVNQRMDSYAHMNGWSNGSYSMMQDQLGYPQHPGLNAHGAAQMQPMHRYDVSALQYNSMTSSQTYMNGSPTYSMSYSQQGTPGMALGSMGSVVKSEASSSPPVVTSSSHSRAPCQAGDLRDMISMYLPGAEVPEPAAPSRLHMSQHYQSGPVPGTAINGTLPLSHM
As to the kind of experiment: BLI; SOX2 (0.2 mg/ml) immobilised on an AR2G chip, quenched with 1 M ethanolamine; p300 fragments in PBS; global fit to a 1:1 binding model (BLItz Pro v.1.2.1.5).

For assay [3], the target named is T3, DNA-binding domain of SOX2 (aa 39-127) (human, UniProt P48431 39-127).
T3 construct: also called SOX2DBD; DBDSOX2; source: E. coli BL21(DE3), purified from the supernatant (HisTrap HP, Superose 6 Increase)
T3 sequence (P48431 39-127): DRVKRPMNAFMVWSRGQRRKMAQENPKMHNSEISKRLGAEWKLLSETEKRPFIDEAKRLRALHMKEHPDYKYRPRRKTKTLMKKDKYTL
Nature of the assay: BLI; SOX2DBD or SOX2CTD with KIX or bromodomain; who was immobilised not given; global fit to a 1:1 binding model (BLItz Pro v.1.2.1.5).

Assay [4] concerns the target T4, C-terminal domain of SOX2 (aa 150-317) (human, UniProt P48431 150-317).
T4 construct: also called SOX2CTD; CTDSOX2; source: E. coli BL21(DE3), purified from the supernatant (HisTrap HP, Superose 6 Increase)
The assay is described as above.

These results are taken from article PMC10711550, “Molecular basis for SOX2-dependent regulation of super-enhancer activity” (Nucleic Acids Research, 2023).

A word on the Kd: it is the concentration at which binding is half-saturated. The low end stands for a tighter complex, the high end for a looser complex. As a reminder, the koff is a measure of how fast the partners let go of each other. The term kon denotes the second-order rate constant of association. Lower therefore signals slower complex formation.

T4 sequence (P48431 150-317): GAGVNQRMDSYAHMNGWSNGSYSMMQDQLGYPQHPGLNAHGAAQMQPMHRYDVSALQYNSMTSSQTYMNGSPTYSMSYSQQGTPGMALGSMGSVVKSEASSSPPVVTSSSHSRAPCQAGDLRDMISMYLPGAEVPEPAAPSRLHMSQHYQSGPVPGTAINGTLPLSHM
T1 sequence (P48431 whole entry): as the sequence (P48431 whole entry) above

B1: p300 bromodomain (aa 1067-1139) (domain or fragment, human, UniProt Q09472 1067-1139, looked up)
chain: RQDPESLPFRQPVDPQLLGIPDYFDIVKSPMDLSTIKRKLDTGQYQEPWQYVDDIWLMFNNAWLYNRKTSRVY
notes: human p300, bromodomain, residues 1067-1139; also called p300BD; BD; source: E. coli BL21(DE3), purified from the supernatant (HisTrap HP, Superose 6 Increase)
Turning to B1, in assay [1], the “fold higher KD than p300KIX” value stood at 20.1 fold.

B2: p300 bromodomain (aa 1067-1139) (domain or fragment, human, UniProt Q09472 1067-1139, looked up)
chain: B1 chain
notes: human p300, UniProt Q09472, bromodomain, aa 1067-1139; also called BD; p300BD; source: E. coli BL21(DE3), purified from the supernatant (HisTrap HP, Superose 6 Increase)
In assay [2], B2 came in with a dissociation constant Kd of 54 µM, a koff of 0.00606 s⁻¹ and a kon of 112 M⁻¹ s⁻¹. In assay [3], this molecule had a koff of 0.0265 s⁻¹ and a kon of 172 M⁻¹ s⁻¹. The molecule also yielded a koff in assay [4] of 0.0951 s⁻¹.

B3: p300 KIX-BD fragment (aa 566-1139) (domain or fragment)
chain: not shown
notes: human p300, KIX + bromodomain, residues 566-1139; also called p300KB; KB; source: E. coli BL21(DE3), purified from the supernatant (HisTrap HP, Superose 6 Increase)
As to B3, in assay [1], the “fold lower KD than p300BD” value is 834 fold and the “fold lower KD than p300KIX” value is 41.4 fold.

B4: p300 KIX domain (aa 566-646) (domain or fragment)
chain: not shown
notes: human p300, UniProt Q09472, KIX domain, aa 566-646; also called KIXp300; source: E. coli BL21(DE3), purified from the supernatant (HisTrap HP, Superose 6 Increase)
In assay [3], B4 displayed a dissociation rate constant (koff) of 0.0469 s⁻¹ and a kon of 5060 M⁻¹ s⁻¹. In addition, in assay [4], the koff is 0.0849 s⁻¹ and the on-rate (kon) worked out at 1720 M⁻¹ s⁻¹.
